Data as given in paper PMC4777857.
Blank lines part the entries; values can stand above or below the substance they belong to.

What was measured:
[1] = biological target: monomeric heterotrimeric collagen VI molecule composed of one α1 chain, one α2 chain and one α5 chain (mouse (endogenous in E14.5 lung)) (UniProt Q04857); assay: immunoelectron microscopy after negative staining; native collagen VI tetramers and microfibrils extracted from E14.5 mouse lungs by collagenase digestion; double labelling for 30 min at 37 °C with colloidal gold-labeled antibodies specific for the N-terminal regions of the long α chains
[2] = biological target: C-terminal globular region of the collagen VI α2 chain; assay: SAXS; C-terminal regions in solution (α1, 4.3 mg/ml; α2, 4 mg/ml; α4, 3.5 mg/ml; α6, 3.5 mg/ml) after Superdex200 in 10 mM phosphate buffer, 400 mM NaCl, pH 7.4; EMBL-P12 beamline, PETRAIII; molecular weight from the volume of correlation
[3] = biological target: C-terminal globular region of the collagen VI α1 chain; assay: as above
[4] = biological target: monomeric heterotrimeric collagen VI molecule composed of one α1 chain, one α2 chain and one α4 chain (mouse (endogenous in tissue)) (UniProt Q04857); assay: immunoelectron microscopy after negative staining; native collagen VI tetramers and microfibrils extracted from E14.5 mouse lungs by collagenase digestion; double labelling for 30 min at 37 °C with colloidal gold-labeled antibodies specific for the N-terminal regions of the long α chains
[5] = biological target: monomeric heterotrimeric collagen VI molecule composed of one α1 chain, one α2 chain and one α6 chain (mouse (endogenous in tissue)) (UniProt Q04857); assay: as above
[6] = biological target: C-terminal globular region of the collagen VI α4 chain; assay: SAXS; C-terminal regions in solution (α1, 4.3 mg/ml; α2, 4 mg/ml; α4, 3.5 mg/ml; α6, 3.5 mg/ml) after Superdex200 in 10 mM phosphate buffer, 400 mM NaCl, pH 7.4; EMBL-P12 beamline, PETRAIII; molecular weight from the volume of correlation
[7] = biological target: monomeric heterotrimeric collagen VI molecule composed of one α1 chain, one α2 chain and one α3 chain (mouse (endogenous in tissue)) (UniProt Q04857); assay: immunoelectron microscopy after negative staining; native collagen VI tetramers and microfibrils extracted from E14.5 mouse lungs by collagenase digestion; double labelling for 30 min at 37 °C with colloidal gold-labeled antibodies specific for the N-terminal regions of the long α chains

Substance: monomeric heterotrimeric collagen VI molecule composed of one α1 chain, one α2 chain and one α5 chain, Q04857 20-1025; Q02788 26-1034; A6H584 19-2640
stoichiometry N [1]: 4

Substance: C-terminal globular region of the collagen VI α2 chain (domain or fragment)
stoichiometry N [2]: 2

Substance: monomeric heterotrimeric collagen VI molecule composed of one α1 chain, one α2 chain and one α6 chain, Q04857 20-1025; Q02788 26-1034; Q8C6K9 19-2265
stoichiometry N [5]: 4

Now from value to substance:

stoichiometry N [3]: 2
Substance: C-terminal globular region of the collagen VI α1 chain (domain or fragment)

stoichiometry N [4]: 4
Substance: monomeric heterotrimeric collagen VI molecule composed of one α1 chain, one α2 chain and one α4 chain, Q04857 20-1025; Q02788 26-1034; A2AX52 23-2309

stoichiometry N [6]: 2
Substance: C-terminal globular region of the collagen VI α4 chain (domain or fragment)

stoichiometry N [7]: 4
Substance: monomeric heterotrimeric collagen VI molecule composed of one α1 chain, one α2 chain and one α3 chain (from UniProt Q04857 20-1025; Q02788 26-1034) (complex)
